Publication PMC6855462

Molecular target: FL H1#5070 (full-length HA of H1 A/Brisbane/59/2007, C-terminally modified with a sortase A LPXTG recognition sequence, biotinylated HA probe) (influenza A virus H1 A/Brisbane/59/2007)
Assay: SEC-MALS; Superdex 200 10-300 GL column, after sortase-mediated biotinylation; trimeric fractions collected; stored in 20mM Tris, 150mM NaCl, pH7.8

With “FL H1#5070 (full-length HA of H1 A/Brisbane/59/2007, C-terminally modified with a sortase A LPXTG recognition sequence, biotinylated HA probe) (natural protein)” the stoichiometry N was 3.
